Results: PMC6532066 (Nature, 2019)
Where two headings read alike, the source gives them in different places.

T1: LptG (E. coli K-12, UniProt P0ADC6)
T1 sequence: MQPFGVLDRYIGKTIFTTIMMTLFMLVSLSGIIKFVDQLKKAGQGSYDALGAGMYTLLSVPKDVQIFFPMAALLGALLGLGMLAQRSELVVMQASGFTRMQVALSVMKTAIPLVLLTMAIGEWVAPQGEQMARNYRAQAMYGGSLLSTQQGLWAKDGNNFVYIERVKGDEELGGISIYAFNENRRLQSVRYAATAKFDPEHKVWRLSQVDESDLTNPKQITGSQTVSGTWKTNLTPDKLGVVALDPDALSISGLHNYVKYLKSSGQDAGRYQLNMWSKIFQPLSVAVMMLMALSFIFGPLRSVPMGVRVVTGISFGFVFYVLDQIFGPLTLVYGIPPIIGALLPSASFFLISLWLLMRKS

T2: LptF (E. coli K-12, UniProt P0AF98)
T2 sequence: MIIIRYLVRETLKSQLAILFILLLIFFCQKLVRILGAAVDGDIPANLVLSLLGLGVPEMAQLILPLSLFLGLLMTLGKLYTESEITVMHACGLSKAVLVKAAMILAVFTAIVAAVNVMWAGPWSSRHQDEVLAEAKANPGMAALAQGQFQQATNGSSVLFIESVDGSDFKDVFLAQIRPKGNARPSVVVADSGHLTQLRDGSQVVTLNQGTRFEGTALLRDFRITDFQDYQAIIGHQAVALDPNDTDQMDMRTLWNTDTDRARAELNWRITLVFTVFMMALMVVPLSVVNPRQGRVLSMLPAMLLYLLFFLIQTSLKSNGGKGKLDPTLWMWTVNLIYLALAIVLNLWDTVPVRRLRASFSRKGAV


Columns and labels:
Test in all cases: cryo-EM structure
LptG = target: T1, LptG
LptF [1] = target: T2, LptF
LptF [2] = target: T2, LptF; remark: listed apart in the source

Row | binding result (LptG) | binding result (LptF [1]) | binding result (LptF [2]) | Binder
1 | binds | binds | – | LptB (natural protein) MATLTAKNLAKAYKGRRVVEDVSLTVNSGEIVGLLGPNGAGKTTTFYMVVGIVPRDAGNIIIDDDDISLLPLHARARRGIGYLPQEASIFRRLSVYDNLMAVLQIRDDLSAEQREDRANELMEEFHIEHLRDSMGQSLSGGERRRVEIARALAANPKFILLDEPFAGVDPISVIDIKRIIEHLRDSGLGVLITDHNVRETLAVCERAYIVSQGHLIAHGTPTEILQDEHVKRVYLGEDFRL
2 | – | – | binds | LptC (natural protein) MSKARRWVIIVLSLAVLVMIGINMAEKDDTAQVVVNNNDPTYKSEHTDTLVYNPEGALSYRLIAQHVEYYSDQAVSWFTQPVLTTFDKDKIPTWSVKADKAKLTNDRMLYLYGHVEVNALVPDSQLRRITTDNAQINLVTQDVTSEDLVTLYGTTFNSSGLKMRGNLRSKNAELIEKVRTSYEIQNKQTQP
